From PMC12669755 come the findings set out here.

In this assay the target is 3xFLAG::mScarlet::WAGO-4 (UniProt O62275). As to the kind of experiment: in vitro phase separation (condensate partitioning, confocal fluorescence microscopy).

Take “minimal P granules (condensates of PGL-1, PGL-3, GLH-1 and GLH-4 with poly-A+ mRNA), WT GLH-1 and GLH-4 (from UniProt Q9TZQ3;G5EBV6;P34689;O76743) GLH-1(F→A); GLH-4(F→A)”: the other: condensed / dilute phase mScarlet::WAGO-4 fluorescence ratio by setting is: (second replicate, n = 36 ROIs, buffer-only negative control ratios in the same panel: WT 1.36, FG* 1.41, parent: 2.45) 2.09; (single experiment, n = 32-36 ROIs, buffer-only negative control ratios in the same panel: WT 1.36, FG* 1.32, parent: 3.04) 2.53.
